Results taken from the NTF2 design screens of Basanta et al. (2020).

Assay: protease stability score; higher = more stable; yeast display proteolysis, trypsin and chymotrypsin;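 further: log10 excess protease needed over predicted unfolded state with 0 meaning unfolded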

Point of comparison: “DEEELQRWAERIVEAFTHGDPQRLSKNVDKNVKVTVGEHEYHGKEELNKILEEIRRQADRIHYKSVDVQGDRANFDMVMNVNGKNVKFTLIVRFENGHAKHLEFDPRMWRVVQR”, protease stability score 1.53. Against it:
- DKEVIKQLKHFMKALEKGDPDKLVELADPEAKYEYGDRTYKGMSNVAEELVNTRREIRFQLTLQSYEVQGEKARVKAVYVKDRNGKPDNQVVVIEMEAHNGKIKSMQERSDQ — lower, 0.501
- DEDKARRLAEKLFEYMMKGKKDEAKKFLDPDVRYEYVDETVEGPKVAEHVVRKIRKLGMKVETKEMEIRGDKARAVFVYRNGDNQVETTVEAQYEGDKLKEVRVELTDEVKKQVTQG — lower, 0.804
- DDEFLKKVVEVIRHGDEERLVRNFDENARMRIGDKVFHGREEIKKALHRIREHADHIDVESVDQQGDTLDADVFIEVNGKNWVFKLKVTVHNGRIKEVSWHVRDEDADNIMKEIMS — higher, 1.8
- DEHKQQERAEDAVRVMQKGDERRFHEQLDENVRVTIGDREVHGRENAVEMFQEWVKRADHIRVDKLEVSNGVVNAHFEVEHNGQTRHQVMVVTYHNGEIQHMTIDRG — lower, 0.741
- DEEDAEDVVRKVNKILRDGDWEKFVNLMDKNAHARIGDQTYSGRSAAEDIARDVHRQVDHVEIKRVEVQGNTVHIDMVVEHNGREEKRVMDLIITNGRLRMVEYQHG — lower, -0.107
- EEENVKLVERFLKAVLEGDEDQLRRLMDPNARVRVGDKVLTGRDRVAEHFKERSQQWQFHIDVKHVSVNGDHIIMHFQFSMTVNGQPRSATMTAVFRVHNGRIQQVEFRLPEEDQKTIRG — lower, 0.811
- DEEDLKRLAETFADALQRNDPSQLNKMIDPNAKVQYGEKTFHGREKLHEWAHEMKKQADHFEIRSITVEGESVVIDLRMIVNGHERRLNLTMHLKNGRIQHLRADSR — lower, 0.943
- DEQTHAEELARNFVTAIRTNNDQDIRDLFDKDARVEVGDKTIHGRENIARSIITIAKRVDSVDIRIQHVEVQGDKINIKMERRYDHNGQEHKKDLTMVARLTNGHMRIKVVKMD — lower, 0.885
- DEEAQKRAQTFFHILEHGDPKKLSKLFDKDAKFVVGEQRINGMQQYEQWFRDVYKKIRVTMKLVSVHVTGNKIDIKAKVEWHVNGRPLTFDLDIKINFHNGKMKEAVFHVDSDFLRKLKR — lower, 0.63
- DEDVEDRVRRFLEQVNHNNPQDLSKYMDPNARLDIGDKVLHGREDIHKFWEDLIRESRIEVREMDVKVHNGRVSATVRFVEHENGNPRETVMKITATWSNGRAQFMRFQSDG — lower, 0.82
- DEEDNTKLKRIMQTGDFETLVHQADENAEFHYGDKTYHGNDQAHKAVENQKKQFDKIEVRSIETKNGHVHVEFRIEVNGRELVLTAFANVHNGRVKNATVQARSEEDRKSLKELDR — lower, 0.044
- DRTEILKHMFDDLAQVRRDGDPEKLNELMDEDVKARYGDKEYHGREDVARNIHRLASQADHVHIQLDRMSVDNGKARLEADVRIEHNGKVDEVRVEIRADVDNGRVNLREMIYR — lower, 0.839
- DETAVTVLTEIVKAQRQGDHNRFNELVDPNAKIRVGDKRVTGREQLTHEFHKNLKHMRVHQKVHDMKDHNGRVQATAQRRSNHNGKPKEVEVQFQATARNGRLTQMEMHSSG — lower, -0.643
- DHSQLEIVIEWVKALQEGDPDKAKKNMDKNVKLDIGDKRLEGRDEVRKEMETMKKSARFDLHIDSYNVHGDHAELRVTFRNDHNGRPKKDRNTIRATAHNGRITYLSVEHTG — lower, 0.708
- EEQVEELMHRIMTAIKTNNPDDLKRNIDPNAKIRIGDTVIHGMEEYVHQFEEEVKQLRIEIIDVQQDIKGDKVVVKIRFRRQHNGRPDETVTVFTAKMDNGKVKSLDFQEDG — lower, 1.22
- DEKARKILKKMMHALEKGDEDKVRHLLDPNVKVRIGDKDITGREEVARNIFKTLQSMRVKIDRFHVEAKGDKVRAHQTAKAQHNGQPRRYQATVTARIHNGHFQRIDIQVDK — lower, 0.944
- DEKALENLRRVNDARKTNDEDRIKKLLDKDARVQVGDRQIKGRENVSDTLRKLEEHMRIEIKDYRVDVQNGRAKLEVHWQFEVNGKPRKVTYDWEAEANNGKIQTMHAQFTEEDKRKRKQ — lower, -0.039
- DEKKALEVIDRALKYVKNGNKEQVQQMGAPDVEVQNGDARNKGVEEMKKFAERVKKAGNQFEYKEKTTKGNKVKTVVQVTVNGQTIEYEVEVVAEGGKVKHWVVKMDETFKKVVDKS — lower, 0.008
- DERKEMQKHFDRFVTALRENNPDQLREMADPDAKVRIGDKTLHGRDEVVHYLQLLAERADHISFDVKQFDVHNGVAHVDLRMRFTVNGQERHKDMIFVLNEVNGTVVIVQVQDK — higher, 1.72
- DEDAVKSASNAAQHGDFVRMAEEMRDNPEARYGDKDVRGREEVIRVVRILMEQVDSVKVKRVRVHGEKVTADLKFRVNGREFHANAVVVMDNGRFVKLVLHFTDSDFKHELHKRLE — lower, 1.17
- DENEMVQLARKLARVLETNDSDKMREMIPPDASIEIGDRRLHGRESVEHLMKDMHKRIDHLTVDSVNVDNGRVHISARAKHNGRTRRVQFYALIHNGRIHVISFRTK — lower, 1.34
- DSTQVRILEEMNRAIERGDPERVYQLADPNARFQIGDTQIHGMESFMKHVEETVRHMRISIRSLHADDEGDKMKVTFTFVVNRDGQPRRRVVTATAHANGDQVKYLEWRDDE — lower, 0.477
- DEDLARRLAEEMVKKATHGDEDTVRELIDPNVKFRYGDKDVEGRENFATELAEDMRTADHVHLKQVTIRGDTVQIDMRMVFDGSEDRHDLRLRAHNGKVQEVTIDQG — lower, -0.112
- DHKDQSKMVKDLNRVMQHGDSKQMRSMVDENAEVQYGDNQVHGRDQIREMEKRIRRRVDKVKFDSVDVEGNKVRIQYVVNVNGQNIEQVLHVTFKNGKIKNQEYRVRDPRLEKQFKS — lower, 0.237
- DEKAQTRVQDYLRALQNGDHKRLREYMDENVHLRVGDKEVHGRTTAANEIVKEVRNQEMSMSIKRVRASENHVQMEVVVQVEHNGKPREFSFQLNFKLENGQAKEIKYKIDPTVLKNIRK — lower, 0.507
- DEKKAEEVATRVLEYIRDGNADDVKKLGKEGGQVQLGDTQLNGVDQLYKYVQDFHKQGIHVEYKEHEAKGDTVTFHTTARRGDAQIEFEVHYVVKGDVVERMEVRQDRKQVKEFKDS — lower, -0.084
- DRERLADELRRRLEKVMTTGDPTELDKLMDPNARILYGDQKFHGREHVKEFAKTLNDQYDHVTIRLVSYDIKNGEIHIVVDVVFRHNGQTRTKRINFVARVHGDKVKIESINIP — lower, 1.3
- DEEKNFREWLHKFNEANESNDEEELKHQMDKNAHVTYGDKTIHGRDTVAEHLANKNRRADNIEFRIRHVSVENGQLQFRIDWNLRHNGENDRFEIKVRADVHNGNVQLQEASVD — lower, 0.134
- DEDASRRMIEMVENLQTGNEEEFKKYVDPNVRIEYGDKRVSGRDQATKWWRSEFTEIRFSMRVQSYSVDGNKVDITVRATFDHNGKPEDKKYKLDIQLHNGHIKKLEITDDS — lower, 1.31
- DKEEVQRIVEEMLKFVESGDIKKLVDHGKEGVRYRLGDEEAHGPEAIKKMVVKMKKVGLRIEVKEYQVEGDTATTKLKYQLGDTEDTVEVNAQAQGGRIDQVNADVDKTAVDMIKQG — lower, 0.048
- DDDKRKQFEDYMRKFKTGNEEDLVRNMDKDVDVHIGDKTWDGREEAAHELAQHRRHARIEYKSLSVDDKGDKLQVKMQYVDEHNGTPRDSHVVATLRLKNGKIRMIDVKRDG — lower, -0.17
- DDNLRKHVDNLIKLLQDGNPQELVNMADPNARVTIGDEQVHGREQLHEDWHRQAKEMRIQWDHYRVDAQGDKVRVNATRTLQTNGKPDSERFHVEMRLQGDKLQTERVDVHK — lower, -0.265
- DEHAHRQFKHYLDALKENNEEDLKKQMDKDAEAKYGNQELHGRDDAARHLKRELEEIRVDITEYRIRNQGNNIEAHVRFVVKHNGQPSKMTVLITASADENHMRTIEFDEKK — lower, 0.248
- DEKAKDLFSKVMEAIRTGDEQKIRDNADPNVSVRYGDRNLTGREKVAETNYKIKRHMRIKIDHVRMEVHNGEAEVNVKRVITINGRPTRDTYRLIVVAQGDKLKSVVWKFSEEQRKRLEQ — lower, 0.411
- DDEDADKAQRILETGNPDEMDKLLDKDVRVVVGDKEYKGREQVSEFFRRLLEQVDTITFLSVEIHNGTVQARVLVNVNGHNVDVVFQFVVHNGKLKHAKVEARNEEEQKKLDRALS — higher, 1.55
- DERVKQQVETLERAVKHNDEDRLKELMDPNVRVRVGDRTVEGREEIAKQLVRTNNESRIEQKIDRVDVRGDKVHIDFQRREHHDGKPDSAKFNVLVKASNGRISEMEVHTNQ — lower, -0.248
- DEQRYRELMETAFHLVISGDEDTLDQIGKPNMEYHYVDRTLHGKDVLRVLVKIVKRVGAEARVEEAEVNGDTARAKFQYRKGDNTVQTDAEVKYEGDQIKKARVRLNDEVRKVLKDG — lower, 0.174
- DEQKEAEDIINTWREVLKDNDTDKARELADKHVRVVVGDKELHGREDFVRYFHEVAHRVDHIDIDVLDLTVHNGRIHFEADAVADVNGRKDTFVIRMVWQSQGDKHNMQEMHVP — lower, -0.09
- DEEEQQDHAHTLKDALTYGNEQEFRHMADENARINYGEFDYHGREQFQDVIRRIMEQADHVRVDHVQVHGEHVDIRLKVKFNGQTQRWVIIVRFHNGRIKHLSADTQ — lower, 0.499
- DERAHSHVEDFFRNLKSGNEDEIRKLLDPNARIKVGDKVIHGRDDAKRYVQQQKREMRMEYDVKTVDAQGDKIQVQVNVTQQHNGRPVQYQQNLHMTVENGDIHTVNYQMDTRIERVQES — lower, -0.231
- EDTFVRLVHQMWNDLERGNPEKFRENVDPNARIQVGDQTIHGREQAEEWAERLKRKLQFTVDVKSVTEEPGRIRMRANLINNHNGRPTTKHVIFLANETNGRIKTFRFRQDQ — lower, 0.103
- SEERAKKVAKKLMEAFVKGNKDDAKDALQEDVQLHIAGTTYHGPKAVEKLIEFWQRVGVEVKVQEVRVKGNHVEIQTQVHLGDNTTTVRYKIQVEGDKVKKLQLNFSEEVFKQAKDG — higher, 1.76
- DEDQNTVFEEVKKAIRTGDEEMLKTLMDPNVRLEYGDTEIHGREEAVRQISTRHNQLHVDEQIKDIKAHNGKVDVDFEVHRSHNGDPQHRRASARADVSNGSVKELVVKYDK — lower, 0.014
- DEDDQLRKLLEEIVDALDRGNESELRNLMDKDVRVDVGDKTITGRENAAEFLIRLANEADEIDINITDLKVDNGNISLRFQLHLHHNGRNVTRQVTIVIDRKGDELKVKYIRMS — lower, 0.031
- DEDALTRLREFDDNVRKGNKHRLQDLMDPNVKVRYGDTEIKGREHVAKELKKLVDTMHIEIDYKSMSAEGNHATLTAEVVVQVNGRPIKFRMHVQVQFENGKIKELVYRFSEDAQKKMDG — the same, 1.53
- DETEHAKRLAEEFVRNVETGDESRLVELADPNAKFEVGDTTVHGMEDYAHNMHKRRNEADHFDFKVKSVHVSNGNIRVDIDYRVNHNGKVEKQRMVIYMTKHGDKYRIKKIEVS — lower, -0.082
- DEEDANRHVREFWKNVETGNEDDLRDLADPNARLFVGDKKYRGRSEMAKAFKEIRKNVDHFELKSVQEKGDKVKVVAVWNHNGRNVEMVVIFVAHNGRIKEVQVRHK — lower, 0.233
- DEEEKAREQQEEFQKALEKNDKEKIKNYFDPNVRVHVGDKTLHGREDVAERLIQLAQHVDHIQVEIKKLDVRNGRIDVDVVVVFERNGQRSTQRFKITMKINNGRAYVQHMKQS — lower, 0.109
- DEQELAEELFRDLTEAMKKGDPEQRKDLADEDVHQQVGDKTYHGREDNMKAMEELKRNYDSISIKLTSLSVHNGKVRIVFKVDFEHNGKTSTRRVVAHAYLQGDKVKIKKISEQ — lower, 0.749
